The text below walks through data of patent US20190345216A1, “SorCS PEPTIDES AND USES THEREOF” (AARHUS UNIVERSITET, priority 2015, published 2019).

“Also recorded” adds a separate entry of the source.

In assay [1] the test system is Wild type and SorCS2−/− mice. The assay can be described thus: Marble burying test. To be noted: fluoxetine 20 mg/kg injected 1 hour before, 20 min test. It is filed as in vivo, mouse. The source says:
The SorCS2 knockout mouse has been back-crossed for ten generations into C57/BL6J. Behavioral studies were done with the backcrossed homozygous mice compared to the same C57/BL6J substrain that was used for backcrossing (Glerup, Olsen et al., 2014). In the presented experiments, all mice lines had been backcrossed for ten generations into C57/BL6Jbom (Taconic) and littermate controls were used for experiments. All experiments were approved by the Danish Animal Experiments Inspectorate under the Ministry of Justice (Permit 2011/561-119) and carried according to institutional and national guidelines. All animals were bred and housed at the Animal Facility at Aarhus University. Animals were housed in groups of up to five mice per plastic cage (42×25×15 cm) under pathogen-free conditions with a 12-hour light/12-hour dark schedule and fed standard chow (Altromin #1324) and water ad libitum. Cages were cleaned every week and supplied with bedding and nesting material, a wooden stick, and a metal tunnel. Behavioral experiments were carried out using 12-16 weeks old male mice during their light cycle between 9:00 a.m. to 5:00 p.m. […]
Wild type and SorCS2^−/− mice were injected with either saline only or saline containing 20 mg/ml (20 mg/kg) fluoxetine (trade name Prozac™). […] They were then left for 20 min and hereafter the number of marbles that were more than 50% buried in each cage was counted.

Assay [2] has as its system SorCS2. The assay can be described thus: Western blot of SorCS2 expression in hippocampus and cortex after fluoxetine. The class given is in vivo, mouse. To be noted: wt mice, fluoxetine in water for 3 weeks. On the technique in general: Immunoblotting shows a protein as a band on a membrane.
Experimental: 3 wild-type mice were given either normal tap water or tap water containing 0.8 mg/ml fluoxetine for 3 weeks with water-chance once a week. Hereafter, the mice were euthanized by cervical dislocation and the hippocampus and cortex was dissected out. The samples were lysed in lysis buffer containing protease and phosphatase inhibitors. The samples were then analysed by Western blotting to see if treatment with fluoxetine can increase SorCS2 levels.
Assay [3] deals with hippocampal neurons. The assay can be described thus: BDNF induced formation of inhibitory synapses and spine density in vitro. It is filed as cell-based, mouse. To be noted: 1 nM BDNF; for number of glutamatergic synapses/spines: 24 hours; for number of inhibitory synapses: 72 hrs. As for the experimental part: For studies on BDNF induced formation of inhibitory synapses, neurons from p0 wild type (wt) and SorCS2^−/− pups were seeded at a density of 100.000 neurons per coverslip. After 7 days in vitro, the medium was changed to medium containing either 1 nM of BDNF or similar volumes of sterile D-PBS. Neurons were incubated for 72 hrs at 37° C. and 5% CO2 before being fixed for 20 min in ice cold 4% PFA. After three 5 min washes in D-PBS, the neurons were stained against gephyrin, an inhibitory marker, and co stained against Map2, a marker of the dendritic tree. Images were taken by confocal microscopy and analysed using Imaris software.
To determine spine density in vitro, hippocampal neurons were isolated at PO and grown in culture at a density of 100.000 neurons pr coverslip. After 7 days in vitro the neurons were transfected with a plasmid containing GFP using Lipofectamine LTX reagent (15338-100) using the suppliers protocol. At 13 days in vitro the medium was changed to medium containing either 1 nM or 0 nM BDNF. Hereafter the cells were left in the incubator at 37° C. for 24 hours before being fixed in 4% PFA for 20 minutes at room temperature. To determine spine density, confocal images were obtained and subsequently assessed using Imaris software.

The subject of assay [4] is hippocampal neurons. Nature of the assay: Dendritic branching of neurons in vitro upon BDNF. The class given is cell-based, mouse. Conditions: 1 nM BDNF. As to the method:
(§1) To determine dendritic branching of neurons in vitro, hippocampal neurons were isolated from PO mice and grown in culture at a density of 5000 neurons per coverslip. After 24 hours the medium was changed to medium containing either 1 nM of BDNF or same volume of sterile PBS. Hereafter, the cells were left in the incubator at 37° C. for 72 hours before being fixed in 4% PFA for 20 minutes at room temperature. To determine cell morphology, the neurons were stained against β-tubulin (β-tubulin mouse mAb chemicon MAB3408). Images were taken using a confocal microscope and the branching patterns were analysed using Zen 2011 Image Processing (Carl Zeiss) as follows: The 1st, 2nd, 3rd and 4th order branching patterns the neurons were counted where 1S^t order branches were defined as neurites protruding from the cell soma and were only considered 1st order branches if the branch was longer than the diameter of the soma. 2nd order branches were defined as processes extending from the 1st order branch, and so forth.
For studies on BDNF induced morphological changes of GABAergic interneurons, neurons from p3 WT and SorCS2^−/− pups were seeded at a density of 5.000 neurons per coverslip. The WT and SorCS2^−/− neurons were seeded in 1 mL Neurobasal-A Medium containing either 1 nM BDNF or similar volumes of sterile D-PBS. The neurons were incubated for 72 hrs at 37° C. and 5% CO2 before being fixed for 20 min in ice cold 4% PFA. After three 5 min washes in D-PBS, neurons were stained, against mouse anti-β-tubulin and rabbit anti-GABA. Pictures were taken using a confocal microscope and the branching patterns were analysed using Zen 2011 Image Processing (Carl Zeiss) as follows: The 1st, 2nd, 3rd and 4th order branching patterns the neurons were counted where 1st order branches were defined as neurites protruding from the cell soma and were only considered 1st order branches if the branch was longer than the diameter of the soma. 2nd order branches were defined as processes extending from the 1st order branch, and so forth.

In assay [5] the test system is SorCS2. Nature of the assay: SorCS2 phosphorylation (32P labelling, immunoprecipitation, autoradiography). The class given is cell-based, mouse. To be noted: wt neurons; 1 nM BDNF 10 minutes vs unstimulated. As for the experimental part: For studies on SorCS2 phosphorylation (FIG. 4A), wt neurons were seeded at a density of 2.5 million pr 6-well. After five days in culture, the medium was changed to phosphate-free medium+0.4 mCi/ml of ^32P labelled phosphate and left for 4 hours 37° C. and 5% CO2. Hereafter, the neurons were washed once in phosphate-free medium and medium is added containing 1 nM BDNF or similar volume of sterile PBS. This is left on for 10 minutes before removing the media and adding lysis buffer containing protease- and phosphatase-inhibitors. From the samples, immunoprecipitation was carried out using antibodies against SorCS2. The samples were then analyzed by SDS-gel and subsequent autoradiography to evaluate the phosphorylation of SorCS2.

In another assay the target is T1, TrkB (Homo sapiens, UniProt Q16620).
T1 construct: expressed in transfected cells; host or cells: hSY5Y cells
The assay can be described thus: TrkB phosphorylation in transfected hSY5Y cells. Conditions: hSY5Y cells with SorCS2 and TrkB compared to only TrkB. It is filed as cell-based. The source says:
(§2) In FIG. 6 it is shown that SorCS2 is important for phosphorylation of the BDNF-receptor TrkB.hSY5Y cells were transfected with either SorCS2, TrkB or both (FIG. 6, panels A and B). Upon stimulation with BDNF a 2.5 fold increase in phosphorylation of TrkB was seen when SorCS2 was also present, compared to when only TrkB was present (FIG. 6, panel B). […] This indicates a critical role of SorCS2 in mediating the response to BDNF

The test system of a further assay is PLCy. Nature of the assay: PLCy phosphorylation in transfected hSY5Y cells. The class given is cell-based. Conditions: hSY5Y cells with SorCS2 and TrkB compared to only TrkB.
Text: as §2

The subject of another assay is SorCS2−/− neurons. Nature of the assay: BDNF-mediated branching of SorCS2−/− neurons transfected with SorCS2 constructs. The class given is cell-based, mouse. As for the experimental part:
To study the role of SorCS2 in BDNF-mediated branching (FIG. 4B-G), SorCS2^−/− neurons were seeded at a density of 100.000 neurons pr coverslip in media containing the desired SorCS2 mutant together with GFP. After 6 hours, the medium was changed to normal neurobasal A medium containing either 1 nM BDNF or similar volume of sterile PBS. The neurons were incubated for 72 hrs at 37° C. and 5% CO2 before being fixed for 20 min in ice cold 4% PFA, before a three times 5 min washes in D-PBSPictures were taken using a confocal microscope and the branching patterns were analysed using Zen 2011 Image Processing (Carl Zeiss) as follows: The 1st, 2nd, 3rd and 4th order branching patterns of GFPpositive neurons were counted where 1st order branches were defined as neurites protruding from the cell soma and were only considered 1st order branches if the branch was longer than the diameter of the soma. 2nd order branches were defined as processes extending from the 1st order branch, and so forth. […]

Another assay concerns wild type neurons. The assay can be described thus: Morphological (neurotrophic) response of wild type neurons to SorCS2 tail peptides. It is filed as cell-based, mouse. To be noted: wt neurons; 1 nM BDNF. As to the method:
as §1
We next created peptides similar to the intracellular tail of SorCS2. The first peptide had similar sequence to wild type SorCS2 tail except the serines at position 1125, 1128 and 1130, which had been changed to aspartic acids. Furthermore a TAT sequence had been added to facilitate entry into the neurons (FIG. 11), denoted “Ppep”.

T1 sequence (Q16620 32-822, species assumed): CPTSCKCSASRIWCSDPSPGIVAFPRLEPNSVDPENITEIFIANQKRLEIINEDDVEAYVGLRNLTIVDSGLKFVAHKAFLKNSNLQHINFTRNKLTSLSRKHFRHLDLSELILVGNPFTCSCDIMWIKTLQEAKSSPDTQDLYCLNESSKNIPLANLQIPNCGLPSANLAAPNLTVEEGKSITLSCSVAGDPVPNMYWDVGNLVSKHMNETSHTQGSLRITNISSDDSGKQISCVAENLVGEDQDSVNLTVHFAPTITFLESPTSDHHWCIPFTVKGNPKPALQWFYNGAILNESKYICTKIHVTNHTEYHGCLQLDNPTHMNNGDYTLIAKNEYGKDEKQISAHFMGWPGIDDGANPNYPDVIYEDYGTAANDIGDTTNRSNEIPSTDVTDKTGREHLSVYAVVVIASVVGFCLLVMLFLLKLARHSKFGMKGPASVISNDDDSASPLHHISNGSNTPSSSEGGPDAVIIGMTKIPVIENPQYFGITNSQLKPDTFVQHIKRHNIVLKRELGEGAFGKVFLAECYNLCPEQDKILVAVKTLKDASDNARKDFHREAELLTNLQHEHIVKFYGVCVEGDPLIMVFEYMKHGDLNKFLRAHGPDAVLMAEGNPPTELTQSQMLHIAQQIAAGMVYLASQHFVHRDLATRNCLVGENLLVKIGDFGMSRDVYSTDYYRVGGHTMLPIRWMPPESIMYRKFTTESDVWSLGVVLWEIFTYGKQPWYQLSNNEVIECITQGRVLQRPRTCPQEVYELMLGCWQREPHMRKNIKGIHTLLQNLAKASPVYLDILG

For `CNCCC(Oc1ccc(C(F)(F)F)cc1)c1ccccc1` (stereo not drawn) [fluoxetine], the “number of marbles buried” value was “this effect was not observed; also recorded: this was not the case” in assay [1] (SorCS2−/− mice); “calmed and buried less marbles” in assay [1] (wild type mice). The entries for the “expression of SorCS2 (Western blot)” value with SorCS2 [2] (cortex) and in the assay on SorCS2 [2] (hippocampus) were “not in the cortex” and “increase”, respectively.

B1: BDNF: brain-derived neurotrophic factor, ligand of tyrosine kinase receptor TrkB (protein, UniProt P23560 19-247, looked up)
Neurotrophic factor BDNF …: APMKEANIRGQGGLAYPGVRTHGTLESVNGPKAGSRGLTSLADTFEHVIEELLDEDQKVRPNEENNKDADLYTSRVMLSSQVPLEPPLLFLLEEYKNYLDAANMSMRVRRHSDPARRGELSVCDSISEWVTAADKKTAVDMSGGTVTVLEKVPVSKGQLKQYFYETKCNPMGYTKEGCRGIDKRHWNSQCRTTQSYVRALTMDSKKRIGWRFIRIDTSCVCTLTIKRGR
B1: the entries for the “number of glutamatergic synapses/spines” value with hippocampal neurons [3] (neurons lacking SorCS2) and with hippocampal neurons [3] (wt neurons) were “not the case” and “increase”, respectively. In addition, the “number of inhibitory synapses” value is “not the case” in the assay with hippocampal neurons [3] (neurons lacking SorCS2) and “increase” in the assay on hippocampal neurons [3] (wt neurons). Further, the “dendritic complexity (branching)” value in the assay on hippocampal neurons [4] (GABAergic interneurons lacking SorCS2, 72 hrs) was “non-responsive”; with hippocampal neurons [4] (glutamatergic neurons lacking SorCS2, 72 hours), “not the case”; with hippocampal neurons [4] (wt GABAergic interneurons, 72 hrs), “increase in complexity”; in the assay on hippocampal neurons [4] (wt glutamatergic neurons, 72 hours), “increase in complexity”. The “phosphorylation of SorCS2” value with SorCS2 [5] is given as “increased phosphorylation”. Moreover, the “increase in phosphorylation of TrkB upon BDNF stimulation” value with TrkB is listed as 2.5 fold. Moreover, the “phosphorylation of PLCy upon BDNF stimulation” value in the assay with PLCy is “significant increase”. In addition, the “neurite branching response to BDNF” value in the assay with SorCS2−/− neurons (SorCS2−/− neurons transfected with S1128A variant) was “lost”; in the assay with SorCS2−/− neurons (SorCS2−/− neurons transfected with S1130A variant) it was “lost”; in the assay on SorCS2−/− neurons (SorCS2−/− neurons transfected with full length SorCS2, 1 nM BDNF) it was “rescues the response; also recorded: able to rescue response”; in the assay on SorCS2−/− neurons (SorCS2−/− neurons transfected with full-length variant S1125A, S1128A and S1130A), “diminished”; in the assay on SorCS2−/− neurons (SorCS2−/− neurons transfected with variant lacking the intracellular domain), “no increase in neurite branching”; in the assay on SorCS2−/− neurons (SorCS2−/− neurons transfected with variant with deletion of 56 amino acids), “lost”. Also, the “neurite branching response to BDNF” value in the assay with SorCS2−/− neurons (SorCS2−/− neurons transfected with variant with deletion of the last 21 amino acids) and in the assay with SorCS2−/− neurons (SorCS2−/− neurons transfected with variant with deletion of the last 35 amino acids) was “still rescued the phenotype” in each case. In the assay with wild type neurons, the “complexity of neurons compared to neurons without BDNF (FIG. 13)” value was “increased in complexity”.
